# According to patent US20230072640A1 (VANDERBILT UNIVERSITY, published 2023):
# B1: human monoclonal antibody YFV-136 (antibody, V domains shown)
# VH: QVQLQESGPGLVKPSGTLSLTCAVSGGSISSSNWWSWVRQPPGKGLEWIGDIYHSGSTSYNPSLKSRVTISVDRSKNQFSLKLSSVTAADTAVYYCARAPLVNWYYFDYWGQGTLVTVSS
# VL: QSVLTQPPSVSAAPGQKVTISCSGSSSNIGNNYVSWYQQLPGTAPKLLIYDNNKGPSGIPDRFSGSKSGTSATLGITGLQTGDEADYYCGTWDTSLSAGRVFGGGTKLTVL
# Biological target: E protein of YFV-17D virus (Yellow fever virus strain 17D, UniProt P03314 286-778)
# Test: cell-based or functional assay
# Sequence of E protein of YFV-17D virus (P03314 286-778 limits assumed): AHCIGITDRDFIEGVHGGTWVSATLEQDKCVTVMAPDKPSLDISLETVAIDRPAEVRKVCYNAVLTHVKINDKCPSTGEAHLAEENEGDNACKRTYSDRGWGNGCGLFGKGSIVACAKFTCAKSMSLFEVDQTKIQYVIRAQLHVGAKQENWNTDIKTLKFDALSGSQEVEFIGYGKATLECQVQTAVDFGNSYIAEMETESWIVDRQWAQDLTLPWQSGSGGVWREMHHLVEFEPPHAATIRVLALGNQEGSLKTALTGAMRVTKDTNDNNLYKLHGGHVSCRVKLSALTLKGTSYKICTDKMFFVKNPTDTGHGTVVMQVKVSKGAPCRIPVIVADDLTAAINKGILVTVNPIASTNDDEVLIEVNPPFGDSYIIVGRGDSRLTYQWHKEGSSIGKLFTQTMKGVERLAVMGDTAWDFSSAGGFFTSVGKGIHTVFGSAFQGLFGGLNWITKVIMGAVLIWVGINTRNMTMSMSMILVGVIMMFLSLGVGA
binder,measurement,value
B1,"IC50, focus reduction neutralization test (FRNT) of YFV-17D in Vero cells",< 10 ng/mL
